This passage reports Km and kcat results from publication PMC7192624.

Substrate in this series: Nc1nc2c(ncn2[C@@H]2O[C@H](COP(=O)(O)OP(=O)(O)OP(=O)(O)O)[C@@H](O)[C@H]2O)c(=O)[nH]1
The series can be described thus: purified protein. Format: biochemical, Saccharomyces cerevisiae. The note with it: pH 8.0, 300 mM NaCl, 5 mM MgCl2, 30°C, labelled compound, Snu114 without Prp8.

B1: Snu114^72-1008 (isolated) (Saccharomyces cerevisiae S288C) (protein)
chain: KEVEVLMETKNTQSPQTPLVEPVTERTKLQEHTIFTQLKKNIPKTRYNRDYMLSMANIPERIINVGVIGPLHSGKTSLMDLLVIDSHKRIPDMSKNVELGWKPLRYLDNLKQEIDRGLSIKLNGSTLLCTDLESKSRMINFLDAPGHVNFMDETAVALAASDLVLIVIDVVEGVTFVVEQLIKQSIKNNVAMCFVINKLDRLILDLKLPPMDAYLKLNHIIANINSFTKGNVFSPIDNNIIFASTKLGFTFTIKEFVSYYYAHSIPSSKIDDFTTRLWGSVYYHKGNFRTKPFENVEKYPTFVEFILIPLYKIFSYALSMEKDKLKNLLRSNFRVNLSQEALQYDPQPFLKHVLQLIFRQQTGLVDAITRCYQPFELFDNKTAHLSIPGKSTPEGTLWAHVLKTVDYGGAEWSLVRIYSGLLKRGDTVRILDTSQSESRQKRQLHDISKTETSNEDEDEDDETPSCEVEEIGLLGGRYVYPVHEAHKGQIVLIKGISSAYIKSATLYSVKSKEDMKQLKFFKPLDYITEAVFKIVLQPLLPRELPKLLDALNKISKYYPGVIIKVEESGEHVILGNGELYMDCLLYDLRASYAKIEIKISDPLTVFSESCSNESFASIPVSNSISRLGEENLPGLSISVAAEPMDSKMIQDLSRNTLGKGQNCLDIDGIMDNPRKLSKILRTEYGWDSLASRNVWSFYNGNVLINDTLPDEISPELLSKYKEQIIQGFYWAVKEGPLAEEPIYGVQYKLLSISVPSDVNIDVMKSQIIPLMKKACYVGLLTAIPILLEPIYEVDITVHAPLLPIVEELMKKRRGSRIYKTIKVAGTPLLEVRGQVPVIESAGFETDLRLSTNGLGMCQLYFWHKIWRKVPGDVLDKDAFIPKLKPAPINSLSRDFVMKTRRRKGISTGGFMSNDGPTLEKYISAELYAQLRENGLVP
notes: residues 72-1008 (acidic N-terminal region truncated), C-terminal Strep tag (pIDS-C-Strep), synthetic gene, recombinant in insect cells (MultiBac)
Usually Km stands for the concentration of substrate that gives half-maximal velocity. The term kcat denotes the number of substrate molecules converted per active site and unit of time at saturation. Take B1: the Km was 578.4 µM and the catalytic constant (kcat) came out at 0.001012 s⁻¹.
